The values below come from the array DNA melting data of Ke et al..

As usually defined, the Tm is the temperature at the midpoint of the melting transition.

A short description of this data set: melting temperature; melt of duplexes. As to conditions: sodium 0.0675 M; strand 1 µM.
On to “CGACGTGCCAAATGTGCTG+CAGCACATGGAGCACGTCG ((((((((...((((((((+))))))))...))))))))”, for which the Tm was 52.4 °C.

“CGACGTGCACTATGTGCTG+CAGCACATCGGGCACGTCG ((((((((.(.((((((((+)))))))).).))))))))”: the melting temperature (Tm) was 51.1 °C.

“CGACGTGCGGGATGTGCTG+CAGCACATGTAGCACGTCG ((((((((...((((((((+))))))))...))))))))”: the Tm amounted to 53.7 °C.

With “CGACGTGCGAGATGTGCTG+CAGCACATACAGCACGTCG ((((((((...((((((((+))))))))...))))))))”, the midpoint of thermal melting (Tm) was 52.6 °C.

For the substance “CGACGTGCATTATGTGCTG+CAGCACATGTTGCACGTCG (((((((((..((((((((+))))))))..)))))))))”, the Tm worked out at 52.2 °C.

Consider “CGACGTGCTTTATGTGCTG+CAGCACATATCGCACGTCG ((((((((..(((((((((+)))))))))..))))))))”, for which the Tm came out at 49.1 °C.

Consider “CGACGTGCCAAATGTGCTG+CAGCACATGATGCACGTCG ((((((((...((((((((+))))))))...))))))))”, for which the melting temperature (Tm) is 50.3 °C.

Consider “CGACGTGCCCCATGTGCTG+CAGCACATGGCGCACGTCG ((((((((.((((((((((+)))))))))).))))))))”, for which the melting temperature (Tm) was found to be 57.3 °C.

With “CGACGTGCCGAATGTGCTG+CAGCACATAGTGCACGTCG ((((((((...((((((((+))))))))...))))))))”, the midpoint of thermal melting (Tm) is 45.9 °C.

On to “CGACGTGCTGGATGTGCTG+CAGCACATCTCGCACGTCG ((((((((..(((((((((+)))))))))..))))))))”, for which the Tm was found to be 55.3 °C.

For the substance “CGACGTGCCAGATGTGCTG+CAGCACATCAGGCACGTCG (((((((((.(((((((((+))))))))).)))))))))”, the Tm came out at 59.8 °C.

Regarding “CGACGTGCTACATGTGCTG+CAGCACATCTTGCACGTCG ((((((((.(.((((((((+)))))))).).))))))))”, the Tm came to 49.3 °C.

As to “CGACGTGCCGAATGTGCTG+CAGCACATTAGGCACGTCG (((((((((.(((((((((+))))))))).)))))))))”, the Tm came to 59.6 °C.

“CGACGTGCCGCATGTGCTG+CAGCACATCGTGCACGTCG ((((((((...((((((((+))))))))...))))))))”: the melting temperature (Tm) stood at 50.5 °C.

As for “CGACGTGCCTAATGTGCTG+CAGCACATTGTGCACGTCG ((((((((..(((((((((+)))))))))..))))))))”, the Tm came out at 49 °C.

With “CGACGTGCGGCATGTGCTG+CAGCACATCGAGCACGTCG ((((((((...((((((((+))))))))...))))))))”, the melting temperature (Tm) is 53.6 °C.

With “CGACGTGCTCGATGTGCTG+CAGCACATATCGCACGTCG ((((((((...((((((((+))))))))...))))))))”, the Tm stood at 47.8 °C.

As to “CGACGTGCCCCATGTGCTG+CAGCACATTGAGCACGTCG ((((((((.(.((((((((+)))))))).).))))))))”, the Tm is 50.1 °C.

“CGACGTGCCCCATGTGCTG+CAGCACATAACGCACGTCG ((((((((...((((((((+))))))))...))))))))”: the Tm is 45.7 °C.

Take “CGACGTGCACCATGTGCTG+CAGCACATTGGGCACGTCG ((((((((.(.((((((((+)))))))).).))))))))”: the Tm stood at 52.5 °C.

“CGACGTGCTCCATGTGCTG+CAGCACATTGAGCACGTCG ((((((((((.((((((((+)))))))).))))))))))”: the Tm was found to be 56.5 °C.

On to “CGACGTGCACCATGTGCTG+CAGCACATAGGGCACGTCG ((((((((.(.((((((((+)))))))).).))))))))”, for which the Tm worked out at 51.5 °C.

In the case of “CGACGTGCCGGATGTGCTG+CAGCACATGCGGCACGTCG ((((((((((.((((((((+)))))))).))))))))))”, the Tm was 62.6 °C.

On to “CGACGTGCATAATGTGCTG+CAGCACATCTTGCACGTCG (((((((((..((((((((+))))))))..)))))))))”, for which the midpoint of thermal melting (Tm) worked out at 50.8 °C.

In the case of “CGACGTGCTGAATGTGCTG+CAGCACATAAAGCACGTCG (((((((((..((((((((+))))))))..)))))))))”, the melting temperature (Tm) was found to be 55.5 °C.

“CGACGTGCGTGATGTGCTG+CAGCACATTAAGCACGTCG ((((((((.(.((((((((+)))))))).).))))))))”: the melting temperature (Tm) was determined as 54.5 °C.

Consider “CGACGTGCTTCATGTGCTG+CAGCACATACGGCACGTCG ((((((((...((((((((+))))))))...))))))))”, for which the midpoint of thermal melting (Tm) came to 47.7 °C.

Turning to “CGACGTGCTAGATGTGCTG+CAGCACATGTTGCACGTCG ((((((((.(.((((((((+)))))))).).))))))))”, the midpoint of thermal melting (Tm) worked out at 52.2 °C.

As for “CGACGTGCACAATGTGCTG+CAGCACATCCTGCACGTCG (((((((((..((((((((+))))))))..)))))))))”, the midpoint of thermal melting (Tm) amounted to 47.1 °C.

Consider “CGACGTGCTGTATGTGCTG+CAGCACATGCCGCACGTCG ((((((((.(.((((((((+)))))))).).))))))))”, for which the melting temperature (Tm) turned out to be 52.8 °C.

In the case of “CGACGTGCGACATGTGCTG+CAGCACATACTGCACGTCG ((((((((...((((((((+))))))))...))))))))”, the midpoint of thermal melting (Tm) is 49.9 °C.

Regarding “CGACGTGCTGGATGTGCTG+CAGCACATTGTGCACGTCG ((((((((...((((((((+))))))))...))))))))”, the Tm stood at 48.3 °C.

With “CGACGTGCGGAATGTGCTG+CAGCACATCGTGCACGTCG ((((((((...((((((((+))))))))...))))))))”, the midpoint of thermal melting (Tm) came out at 46.7 °C.

Turning to “CGACGTGCTAAATGTGCTG+CAGCACATAACGCACGTCG ((((((((...((((((((+))))))))...))))))))”, the Tm stood at 50 °C.

Turning to “CGACGTGCATAATGTGCTG+CAGCACATAACGCACGTCG ((((((((.(.((((((((+)))))))).).))))))))”, the melting temperature (Tm) worked out at 48.8 °C.

Turning to “CGACGTGCCTAATGTGCTG+CAGCACATCAGGCACGTCG ((((((((((.((((((((+)))))))).))))))))))”, the Tm came out at 56.3 °C.

For the substance “CGACGTGCATCATGTGCTG+CAGCACATCGTGCACGTCG (((((((((..((((((((+))))))))..)))))))))”, the Tm was 47.2 °C.

“CGACGTGCCAAATGTGCTG+CAGCACATAACGCACGTCG ((((((((...((((((((+))))))))...))))))))”: the Tm came out at 47.7 °C.

“CGACGTGCGGAATGTGCTG+CAGCACATCCTGCACGTCG ((((((((.(.((((((((+)))))))).).))))))))”: the melting temperature (Tm) was 55.2 °C.

On to “CGACGTGCACGATGTGCTG+CAGCACATGGGGCACGTCG ((((((((.(.((((((((+)))))))).).))))))))”, for which the midpoint of thermal melting (Tm) amounted to 54.9 °C.

Take “CGACGTGCGCAATGTGCTG+CAGCACATCCCGCACGTCG (((((((((..((((((((+))))))))..)))))))))”: the melting temperature (Tm) came to 52.5 °C.

In the case of “CGACGTGCGGTATGTGCTG+CAGCACATCTTGCACGTCG ((((((((...((((((((+))))))))...))))))))”, the melting temperature (Tm) worked out at 50.7 °C.

With “CGACGTGCTGAATGTGCTG+CAGCACATCAGGCACGTCG ((((((((...((((((((+))))))))...))))))))”, the Tm came to 53.5 °C.

For “CGACGTGCGCCATGTGCTG+CAGCACATAAAGCACGTCG ((((((((...((((((((+))))))))...))))))))”, the Tm worked out at 53.6 °C.

Take “CGACGTGCCCTATGTGCTG+CAGCACATCGCGCACGTCG ((((((((.(.((((((((+)))))))).).))))))))”: the midpoint of thermal melting (Tm) was found to be 48.1 °C.

“CGACGTGCCCGATGTGCTG+CAGCACATTAAGCACGTCG ((((((((...((((((((+))))))))...))))))))”: the Tm was found to be 49.5 °C.

“CGACGTGCATGATGTGCTG+CAGCACATGTTGCACGTCG (((((((((..((((((((+))))))))..)))))))))”: the melting temperature (Tm) stood at 52.2 °C.

Turning to “CGACGTGCGATATGTGCTG+CAGCACATATAGCACGTCG ((((((((.((((((((((+)))))))))).))))))))”, the Tm was 57.5 °C.

Turning to “CGACGTGCCACATGTGCTG+CAGCACATTCCGCACGTCG ((((((((...((((((((+))))))))...))))))))”, the Tm amounted to 47.1 °C.

With “CGACGTGCGCGATGTGCTG+CAGCACATAAGGCACGTCG ((((((((...((((((((+))))))))...))))))))”, the Tm was 50 °C.

With “CGACGTGCTGGATGTGCTG+CAGCACATGGCGCACGTCG ((((((((...((((((((+))))))))...))))))))”, the Tm was found to be 49.6 °C.

For the substance “CGACGTGCATAATGTGCTG+CAGCACATTTAGCACGTCG ((((((((..(((((((((+)))))))))..))))))))”, the Tm was found to be 53.2 °C.

As to “CGACGTGCTTTATGTGCTG+CAGCACATAAAGCACGTCG (((((((((((((((((((+)))))))))))))))))))”, the Tm turned out to be 61 °C.

Consider “CGACGTGCGTTATGTGCTG+CAGCACATGATGCACGTCG ((((((((.(.((((((((+)))))))).).))))))))”, for which the Tm stood at 54.6 °C.

For the substance “CGACGTGCAGCATGTGCTG+CAGCACATCGCGCACGTCG ((((((((...((((((((+))))))))...))))))))”, the melting temperature (Tm) was determined as 51.6 °C.

Consider “CGACGTGCCAGATGTGCTG+CAGCACATAATGCACGTCG ((((((((...((((((((+))))))))...))))))))”, for which the Tm was found to be 48.5 °C.

Consider “CGACGTGCATCATGTGCTG+CAGCACATACTGCACGTCG (((((((((..((((((((+))))))))..)))))))))”, for which the Tm is 49.7 °C.

Regarding “CGACGTGCCAGATGTGCTG+CAGCACATGCAGCACGTCG ((((((((...((((((((+))))))))...))))))))”, the melting temperature (Tm) worked out at 51.2 °C.

Turning to “CGACGTGCGTGATGTGCTG+CAGCACATGACGCACGTCG ((((((((((.((((((((+)))))))).))))))))))”, the Tm is 57.8 °C.

Turning to “CGACGTGCAGTATGTGCTG+CAGCACATACGGCACGTCG ((((((((.((((((((((+)))))))))).))))))))”, the midpoint of thermal melting (Tm) turned out to be 58.3 °C.

Consider “CGACGTGCAGAATGTGCTG+CAGCACATGCAGCACGTCG ((((((((.(.((((((((+)))))))).).))))))))”, for which the Tm is 54.6 °C.

As to “CGACGTGCCGGATGTGCTG+CAGCACATCTCGCACGTCG ((((((((..(((((((((+)))))))))..))))))))”, the Tm is 54.1 °C.

For the substance “CGACGTGCGACATGTGCTG+CAGCACATCACGCACGTCG (((((((((..((((((((+))))))))..)))))))))”, the Tm was 52.7 °C.

Take “CGACGTGCGACATGTGCTG+CAGCACATGTCGCACGTCG (((((((((((((((((((+)))))))))))))))))))”: the melting temperature (Tm) is 67.2 °C.

Regarding “CGACGTGCAGTATGTGCTG+CAGCACATCCTGCACGTCG ((((((((((.((((((((+)))))))).))))))))))”, the Tm was 56.3 °C.

As for “CGACGTGCCTGATGTGCTG+CAGCACATCCCGCACGTCG ((((((((..(((((((((+)))))))))..))))))))”, the Tm amounted to 53 °C.
